Data on six molecules can be found in patent US20250304651A1 (ACADEMISCH ZIEKENHUIS LEIDEN H O D N LEIDS UNIVERSITAIR …, published 2025).

The target of experiment [1] is T1, ΔNPM1 (mutant NPM1; dNPM1) peptide on HLA-A*03:01 (human).
T1 peptide: AVEEVSLRK
In words: cytokine release.

For experiment [2], the target named is T2, ΔNPM1 (mutant NPM1; dNPM1) peptide on HLA-A*11:01 (human).
T2 peptide: AVEEVSLRK
In words: multimer staining.

The target of experiment [3] is T3, HLA-A*11:01 (monomer for refolding) (human).
T3 construct: Monomer production is described in detail only for HLA-A*02:01
In words: monomer refolding.

Experiment [4] addresses T4, HLA-A*03:01 (monomer for refolding) (human).
T4 construct: Monomer production is described in detail only for HLA-A*02:01
In words: monomer refolding.

The target of experiment [5] is HLA-A*02:01 (recombinant heavy chain with human β2-microglobulin, monomer) (human). In words: monomer refolding.
In experiment [6] the target is T2, ΔNPM1 (mutant NPM1; dNPM1) peptide on …. In words: cytokine release.
Experiment [7] addresses T1, ΔNPM1 (mutant NPM1; dNPM1) peptide on …. In words: multimer staining.
For experiment [8], the target named is T5, ΔNPM1 (mutant NPM1; dNPM1) peptide on HLA-A*03:01 (human).
T5 peptide: CLAVEEVSLRK
In words: multimer staining.

In experiment [9] the target is T6, HLA-A*01:01 (monomer for refolding) (human).
T6 construct: Monomer production is described in detail only for HLA-A*02:01
The experiment is described as follows: monomer folding for tetramer production.

B1: dNPM1-A*11:01 TCR (clone 6F11) (TCR, V domains shown)
Valpha: AQSVTQLDSQVPVFEEAPVELRCNYSSSVSVYLFWYVQYPNQGLQLLLKYLSGSTLVKGINGFEAEFNKSQTSFHLRKPSVHISDTAEYFCAVSPAGNQFYFGTGTSLTVIP
Vbeta: GAGVSQSPRYKVTKRGQDVALRCDPISGHVSLYWYRQALGQGPEFLTYFNYEAQQDKSGLPNDRFSAERPEGSISTLTIQRTEQRDSAMYRCASSLGSNQPQHFGDGTRLSIL
Turning to B1, the binding result in [1] is “no recognition”; in [2], “recognises”.

For the molecule CLAVEEVSLRK (Synthetic peptide) [ΔNPM1 peptide CLAVEEVSLRK], the binding result in experiment [3] and in experiment [4] was “binds” throughout.

For CLAVEEVSL (Synthetic peptide) [ΔNPM1 peptide CLAVEEVSL], the binding result in experiment [5] was “binds”.

B2: dNPM1-A*03:01 TCR (clone 31.3.F1) (TCR, V domains shown)
Valpha: QKEVEQNSGPLSVPEGAIASLNCTYSDRGSQSFFWYRQYSGKSPELIMSIYSNGDKEDGRFTAQLNKASQYVSLLIRDSQPSDSATYLCALSGGGQNFVFGPGTRLSVLP
Vbeta: EAGVTQFPSHSVIEKGQTVTLRCDPISGHDNLYWYRRVMGKEIKFLLHFVKESKQDESGMPNNRFLAERTGGTYSTLKVQPAELEDSGVYFCASSQGSGFRHFGDGTRLSIL
On to B2, for which the binding result is “no recognition” in experiment [6], “recognises” in [7] and “no recognition” in experiment [8].

B3: ΔNPM1 peptide AVEEVSLRK (peptide)
peptide: AVEEVSLRK
notes: Eluted natural ligand in the ligandome work
Turning to B3, the binding result in experiment [3], in [4] and in experiment [9] was “binds” in each case.

B4: dNPM1-A*11:01 TCR (clone 26.2.D6) (TCR, V domains shown)
Valpha: GEDVEQSLFLSVREGDSSVINCTYTDSSSTYLYWYKQEPGAGLQLLTYIFSNMDMKQDQRLTVLLNKKDKHLSLRIADTQTGDSAIYFCAESKGQNFVFGPGTRLSVLP
Vbeta: DGGITQSPKYLFRKEGQNVTLSCEQNLNHDAMYWYRQDPGQGLRLIYYSHIVNDFQKGDIAEGYSVSREKKESFPLTVTSAQKNPTAFYLCASTTWGTGGHEQYFGPGTRLTVT
B4: the values for the binding result in experiment [1] and in [2] were “no recognition” and “recognises”, respectively.
